Reference: PMC4523612 (The Journal of Cell Biology, 2015)

How the values were obtained:
Eg5 [1] = molecular target: Eg5 (UniProt P52732)
Eg5 [2] = molecular target: T1, Eg5 (UniProt P52732 1-1056)
T1 sequence: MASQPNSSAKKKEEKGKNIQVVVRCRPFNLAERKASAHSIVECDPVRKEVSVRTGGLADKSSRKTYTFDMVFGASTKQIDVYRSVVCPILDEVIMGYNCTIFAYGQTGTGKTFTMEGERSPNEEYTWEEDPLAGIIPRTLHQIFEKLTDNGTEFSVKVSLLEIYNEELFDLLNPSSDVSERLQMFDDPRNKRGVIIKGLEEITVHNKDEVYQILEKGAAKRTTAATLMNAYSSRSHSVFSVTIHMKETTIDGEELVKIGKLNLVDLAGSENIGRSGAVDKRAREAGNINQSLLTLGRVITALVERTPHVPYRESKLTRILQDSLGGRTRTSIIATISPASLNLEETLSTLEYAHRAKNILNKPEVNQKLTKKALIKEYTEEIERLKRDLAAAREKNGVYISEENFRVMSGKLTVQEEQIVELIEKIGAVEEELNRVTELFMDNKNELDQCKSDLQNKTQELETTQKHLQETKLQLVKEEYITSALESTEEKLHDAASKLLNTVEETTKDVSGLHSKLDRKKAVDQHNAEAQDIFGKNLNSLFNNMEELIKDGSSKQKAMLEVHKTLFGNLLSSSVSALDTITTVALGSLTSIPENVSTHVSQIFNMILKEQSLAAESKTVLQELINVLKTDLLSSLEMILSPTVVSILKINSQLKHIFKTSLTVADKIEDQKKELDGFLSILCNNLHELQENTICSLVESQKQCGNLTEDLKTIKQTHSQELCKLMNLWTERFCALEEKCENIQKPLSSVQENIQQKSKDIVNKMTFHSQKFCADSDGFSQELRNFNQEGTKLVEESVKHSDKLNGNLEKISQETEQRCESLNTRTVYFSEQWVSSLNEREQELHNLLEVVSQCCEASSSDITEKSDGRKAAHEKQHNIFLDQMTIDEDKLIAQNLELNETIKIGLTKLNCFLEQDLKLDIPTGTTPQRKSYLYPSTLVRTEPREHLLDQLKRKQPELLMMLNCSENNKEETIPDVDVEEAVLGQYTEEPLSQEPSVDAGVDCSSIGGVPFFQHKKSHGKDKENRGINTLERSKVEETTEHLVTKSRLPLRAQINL

| Molecule | binding relative to WT (% less than WT) (Eg5 [1]) | binding relative to WT (Eg5 [2]) [% less than WT] |
| --- | --- | --- |
| GFP-TPX2-2D (from UniProt Q9ULW0 1-747) (natural protein) | 41 | – |
| GFP-TPX2-2A (S121/125A) (natural protein) MSQVKSSYSYDAPSDFINFSSLDDEGDTQNIDSWFEEKANLENKLLGKNGTGGLFQGKTPLRKANLQQAIVTPLKPVDNTYYKEAEKENLVEQSIPSNACSSLEVEAAISRKTPAQPQRRALRLAAQKDLEQKEKHHVKMKAKRCATPVIIDEILPSKKMKVSNNKKKPEEEGSAHQDTAEKNASSPEKAKGRHTVPCMPPAKQKFLKSTEEQELEKSMKMQQEVVEMRKKNEEFKKLALAGIGQPVKKSVSQVTKSVDFHFRTDERIKQHPKNQEEYKEVNFTSELRKHPSSPARVTKGCTIVKPFNLSQGKKRTFDETVSTYVPLAQQVEDFHKRTPNRYHLRSKKDDINLLPSKSSVTKICRDPQTPVLQTKHRARAVTCKSTAELEAEELEKLQQYKFKARELDPRILEGGPILPKKPPVKPPTEPIGFDLEIEKRIQERESKKKTEDEHFEFHSRPCPTKILEDVVGVPEKKVLPITVPKSPAFALKNRIRMPTKEDEEEDEPVVIKAQPVPHYGVPFKPQIPEARTVEICPFSFDSRDKERQLQKEKKIKELQKGEVPKFKALPLPHFDTINLPEKKVKNVTQIEPFCLETDRRGALKAQTWKHQLEEELRQQKEAACFKARPNTVISQEPFVPKKEKKSVAEGLSGSLVQEPFQLATEKRAKERQELEKRMAEVEAQKAQQLEEARLQEEEQKKEELARLRRELVHKANPIRKYQGLEIKSSDQPLTVPVSPKFSTRFHC | – | 41 |
